# From paper PMC8812686 (Proceedings of the National Academy of Sciences of the …, 2022)
# Target: the molecule itself
# Test: SEC
row,Protein,stoichiometry N
1,"CcmL, pentameric vertex protein of the β-carboxysome from Thermosynechococcus elongatus BP-1 (natural protein) MKIARVCGTVTSTQKEDTLTGVKFLVLQYLGEDGEFLPDYEVAADTVGAGQDEWVLVSRGSAARHIINGTDKPIDAAVVAIIDTVSRDNYLLYSKRTQY",5
2,"HCcmL, CcmL with a pentahistidine tag (Histag) inserted between D33 and G34 (natural protein, Thermosynechococcus elongatus BP-1) MKIARVCGTVTSTQKEDTLTGVKFLVLQYLGEDHHHHHGEFLPDYEVAADTVGAGQDEWVLVSRGSAARHIINGTDKPIDAAVVAIIDTVSRDNYLLYSKRTQY",5
